Laboratory results reported in PMC5340040.
No end group written: not given here.

Tests used:
[1] = target: T1, CaATP-G-actin (rabbit skeletal muscle actin, monomer) (rabbit), P68135; assay: cross-linking; bacterial transglutaminase (0.3-0.4 mg/ml) at 22 °C, 4 μM CaATP-G-actin or TG-G-actin with 4-8 μM peptide, 1 to 30 min, stopped by 1 mM cysteamine; 12% SDS-PAGE, Coomassie blue or fluorescence, densitometry; one series with 0-200 mM NaCl (1 min); settings: remark: other sources report otherwise
[2] = target: T1, CaATP-G-actin (rabbit skeletal muscle …); assay: cross-linking; competition: 6 μM Fl-LL-37 and 0-16 μM histatin-3 or histatin-5 for transglutaminase cross-linking to 4 μM CaATP-G-actin, 22 °C; SDS-PAGE visualized by fluorescence; settings: remark: other sources report otherwise

percent decrease of the extent of cross-linking with 200 mM NaCl [1] [%] | percent decrease of the cross-linking of 6 μM Fl-LL-37 to 4 μM G-actin at 3 μM histatin [2] [%] | Binder
> 70 |  | DSHAKRHHGYKRKFHEKHHSHRGY (also: FAM label, position not given here) [FAM labeled histatin-5]
 | 68 | DSHAKRHHGYKRKFHEKHHSHRGY [Histatin-5]
